# Assay results as given in PMC3314502.
# Target: FLAG-PICK1 (rat) (UniProt Q9EP80)
# Assay: pull-down
# Chain of UniProt Q9EP80 (Q9EP80 whole entry): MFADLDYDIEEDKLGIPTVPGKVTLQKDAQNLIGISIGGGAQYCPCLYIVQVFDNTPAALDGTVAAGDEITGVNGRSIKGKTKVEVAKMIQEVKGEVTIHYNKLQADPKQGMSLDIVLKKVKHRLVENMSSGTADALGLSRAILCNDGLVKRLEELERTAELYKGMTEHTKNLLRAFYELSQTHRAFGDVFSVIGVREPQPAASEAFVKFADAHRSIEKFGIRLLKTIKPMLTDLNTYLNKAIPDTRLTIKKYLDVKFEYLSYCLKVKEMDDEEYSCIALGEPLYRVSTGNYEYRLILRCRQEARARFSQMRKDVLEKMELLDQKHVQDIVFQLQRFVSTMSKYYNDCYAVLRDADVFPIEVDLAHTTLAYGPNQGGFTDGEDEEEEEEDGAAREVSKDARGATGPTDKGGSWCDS
substance,measurement,value
"pep2-EVKI, point mutant of the C-terminal 11 amino acids of GluR2 (from UniProt P19491 873-883) (peptide)",percent of PICK1 retained by GST-ct-GluR5 (2b) with the peptide,8%
